Data reported in patent US5639728A, “Antineoplastic peptide” (priority 1993, dated 1997).

B1: LT: native-form human lymphotoxin (LT) (protein, UniProt P01374 35-205, looked up)
Lymphotoxin-alpha: LPGVGLTPSAAQTARQHPKMHLAHSTLKPAAHLIGDPSKQNSLLWRANTDRAFLQDGFSLSNNSLLVPTSGIYFVYSQVVFSGKAYSPKATSSPLYLAHEVQLFSSQYPFHVPLLSSQKMVYPGLQEPWLHSMYHGAAFQLTQGDQLSTHTDGIPHLVLSPSTVFFGAFAL

What was measured:
[1] = Effect on systolic blood pressure in SD rats; type: in vivo, rat; conditions: 1 mg/kg i.v., t-test *P < 0.05 for PΔ10LT, FΔ10LT, Δ10LT, LT, TNFα, -- for FPΔ10LT, MLT
Excerpt: Using 11-week-old Crj:CD(SD) rats 350 to 400 g in weight (Nihon Charles River), effects of each test substance on blood pressure were investigated as follows. The aforementioned rats were given ether anesthesia, hair in the right femoral region was cue with clippers, and the skin was cut open using a small scissors. Xylocaine jelly (local anesthetic) was then applied to the cut skin, and each blood vessel was carefully peeled using a tweezers. After the peeling, an SP10 cannulation tube equipped with a three-way cock (Natsume) was attached to arteries and veins, and 200 unit/ml heparin solution was injected therefrom.
After insertion, the skin was sutured using an automatic stitcher, and the rats were secured to a stationary platform (Natsume, Boormann cage). After securing, air in the three-way cock of the arterial cannula was completely removed, and a polygraph (Nihon Denki Sanei, Model 363 System) pressure transducer was connected. After connection, the polygraph was set up, blood pressure measurement was begun, and when blood pressure and heart rate had stabilized, each tested substance used in the foregoing antitumor effect testing was administered by intravenous injection, and 24 hour systolic blood pressure was measured after administration. […]

[2] = tested on: Meth A mouse sarcoma cells; assay: Antitumor effect on Meth A mouse sarcoma transplanted into Balb/c mice; type: in vivo; conditions: for Inhibition rate (tumor growth restriction rate): day 21
Description: (§1) The following experiments were performed in order to calculate a therapeutic index (ratio of toxicity and effectiveness). 2×10^5 Meth A mouse sarcoma cells were transplanted into the dorsal subcutis of 6-week-old female Balb/c mice in single groups comprising from 5 to 10 animals. Seven days after the tumor transplant, the tested substance was dissolved in physiological saline (9.9×10^7 units/ml, 5×10^7 units/mg), and this solution was administered intravenously to the mice twice per week; a total five times. In a control group, physiological saline alone was administered intravenously.
When 21 days following the transplant had passed, surviving animals were sacrificed, and tumors were excised. The excised tumors were weighed, and a mean tumor weight was calculated in each group. The mean tumor weight in each administration group was compared with the mean tumor weight in the control group, and tumor growth restriction rates were determined.
(§2) Based on the tumor growth restriction rates obtained at various concentrations, concentrations restricting tumor growth by 50% (50% effective dose; ED50 mg/kg) were calculated. In each administration group, when toxicity deaths were observed, a 50% lethal quantity (50% lethal dose; LD50 mg/kg) was calculated. The therapeutic index was taken as the ratio of the 50% lethal quantity (LD50) to the 50% tumor growth restriction quantity (ED50)
(§3) Control Δ10LT^4) was the TNF disclosed in JJP, A, S60-185799.

[3] = Toxicity deaths (LD50) in Balb/c mice; type: in vivo, mouse; conditions: i.v. twice per week, five times; female Balb/c mice
Description: as §1, §2, §3

[4] = previously known; cited from earlier work

| Molecule | Decrease of blood pressure (% of the control value) 24 hours after administration [1] [%] | Inhibition rate (tumor growth restriction rate) ([2]; 0.23 mg/kg i.v. twice per week, five times) [%] | Inhibition rate (tumor growth restriction rate) ([2]; 0.94 mg/kg i.v. twice per week, five times) [%] | ED50 (50% tumor growth restriction) ([2]; i.v. twice per week, five times, Meth A, female Balb/c mice) [mg/kg] | Treatment coefficient (LD50/ED50) ([2]; therapeutic index, LD50/ED50) | LD50 [3] [mg/kg] | hypotensive effect, in words [4] |
| --- | --- | --- | --- | --- | --- | --- | --- |
| TNFα | -9.6 | 43.3 | 86.5 | 0.31 | 3.5 | 1.08 | hypotension is a side effect |
| B1 | -10.1 | – | – | – | – | – | also has a hypotensive effect |
